Data reported in the supplement of paper PMC9170038.

Tested on: MS2 coat protein
Experiment: apparent KD of MS2 coat protein; designed switch direction (-1 OFF switch, 1 ON switch): -1; higher = weaker reporter binding
How it was run: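 The buffer was Tris-HCl pH 7.5 with KCl, MgCl2, BSA, DTT, tRNA and Tween-20. In it, SNAP-549-labelled MS2 coat protein was titrated in doubling steps from 0.7 or 1.5 nM to 3 µM over chip-bound RNA switches transcribed by stalled E. coli RNA polymerase on Illumina chips. Apparent KD is the per-design median over clusters of curve fits to normalised fluorescence.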

[1] = input ligand: microRNA oligo, concentration not stated
[2] = Eterna round: R95, input ligand: microRNA oligo, concentration not stated
[3] = Eterna round: R95, input ligand: FMN 200 uM
[4] = Eterna round: R95, input ligand: none

Row | Sequence | apparent KD of MS2 coat protein (input ligand: FMN 200 uM) [nM] | apparent KD of MS2 coat protein (input ligand: none) [nM] | apparent KD of MS2 coat protein [1] [nM] | apparent KD of MS2 coat protein [2] [nM] | apparent KD of MS2 coat protein [3] [nM] | apparent KD of MS2 coat protein [4] [nM]
1 | AUAAUACAUGAGGAUCACCCAUGUGAGGAUAUACGACUCCAACCUAACAGCUUGGACCGUAGAAGGCACAAGGG [Exclusion 1 (MOD1.2 Esqu)] (Eterna round: R97, puzzle: Exclusion 1) | 54.5 | 261 | – | – | – | –
2 | AUAAUCGUAGGAUAUCAUUAGCCCUACAUGAGGAUCACCCAUGUGGGCUGGUGAGGGCGGUGAGAAGGACGAGAGA [EX5 B.1] (Eterna round: R97, puzzle: Exclusion 5) | 25.1 | 18.4 | – | – | – | –
3 | AUAAUGUAAGGAUAUCAGUCGUACAGCCUCGGCUGUACGACUGAGAAGGUACAUGAGGAUCACCCAUGUGGUCA [E4/9-A2] (Eterna round: R97, puzzle: Exclusion 4) | 103 | 1040 | – | – | – | –
4 | AUAAUGUAAGGAUAUCAGUCGUACAGCUGCGGCUGUACGACUGAGAAGGUACAUGAGGAUCACCCAUGUGAUCA [E4/8-A3] (Eterna round: R97, puzzle: Exclusion 4) | 104 | 1380 | – | – | – | –
5 | AUAAUGUCAGGAUAUCAGACGUACAGCUGCGGCUGUACGUCUGAGAAGGGACAUGAGGAUCACCCAUGUGAUUA [E4/3-A3] (Eterna round: R97, puzzle: Exclusion 4) | 124 | 1460 | – | – | – | –
6 | AUAAUUAAUGCAGGAUAUCAGCACGUUUAGUGCUGAGAAGGGCACAUGAGGAUCACCCAUGUGAUCAAUUAAUAUUAAUAUUAU [ENG1/11-D2] (Eterna round: R96, puzzle: Exclusion NG 1) | 269 | 65 | 51.1 | – | – | –
7 | AUACACUAACGAGGAUAUUGGAAAGGAAGUGUACAAGAAGGCGUCCGUGGAAGGGUGAAACAUGAGGAUCACCCAUGUGAAUAA [Exclusion NG 1] (Eterna round: R96, puzzle: Exclusion NG 1) | 519 | 648 | 254 | – | – | –
8 | AUACACUAGCGAGGAUAUUGGAAAGGAAGUGUACAAGAAGGCGCCCGUGGAAGGGUGAAACAUGAGGAUCACCCAUGUGAAUAA [PowerStrip EXNG 1.29] (Eterna round: R96, puzzle: Exclusion NG 1) | 151 | 66.1 | 96.2 | – | – | –
9 | AUACUCGUUGUGAGGAUAUCGUUUUCGUCACGGAUCGAGAAGGCACAUGAGGAUCACCCAUGUUUGACGUGAAU [JR_BMOE4_Sub092] (puzzle: Brourd's mod of Exclusion 4) | – | – | – | 15.4 | – | –
10 | AUAGGUUCGUAGGAUAUUCCUGCAGGCGCGCUGGAAGAAGGAUGAACAUGAGGAUCACCCAUGUGAACACUCCG [Eternabot (L2) Solution 88] (Eterna round: R97, puzzle: Exclusion 6) | 78.3 | 19.6 | – | – | – | –
11 | AUAUACAAGCAAAGAUCCUACAUGAGGAUCACCCAUGUGUUCGUCUUAUAAAGUACUAUCACGAAAGUGAUAGUACA [Mat - Sensor v3 - turn-off var 1 - Eli Mod - D80] (puzzle: Sensor v3, turn-off variant 1) | – | – | – | 6.99 | 161 | 87.8
12 | AUAUACGGAGGAUAUACUUGAGGAUCACCCAAGUGGAAUCCCGUUUGGGCGGUAAAUAGUAGAAGGCCGACCCA [jl-ex3-4.42 ViennaUCT mod] (Eterna round: R97, puzzle: Exclusion 3) | 17.7 | 16.3 | – | – | – | –
13 | AUAUACGGAGGAUAUACUUGAGGAUCACCCAAGUGGAGUCCCGUUUGGGCGGUAAAUAGUAGAAGGCCGUCCCA [jl-ex3-4.44 ViennaUCT mod] (Eterna round: R97, puzzle: Exclusion 3) | 16.8 | 12.3 | – | – | – | –
14 | AUAUAUAGUGUGAGGAUAUGCUGGUCCUUGGAUCAGCAGAAGGCACAUGAGGAUCACCCAUGUAGUUUAUUUUA [Mat - Exclusion 4 - JL Mod - D1] (puzzle: Brourd's mod of Exclusion 4) | – | – | – | 29.3 | – | –
15 | AUAUUAAUAUAGGAUAUCGAAAUUAUUAAUUAUCGAGAAGGAUAAACAUGAGGAUCACCCAUGUGGUAUCAUGG [Mat - Exclusion 6 - JL Mod - D41] (puzzle: Exclusion 6) | – | – | – | 257 | 257 | 328
16 | AUAUUGUGAGGAUAUGAAGUUAGUAUCGAAAGAUACUAAGUUCAGAAGGCACAUGAGGAUCACCCAUGUUUCUC [Long static hairpin v4] (Eterna round: R97, puzzle: Exclusion 4) | 710 | 71.5 | – | – | – | –
17 | AUAUUGUGAGGAUAUGAUCUUAGUAUCGAAAGAUACUAAGUUCAGAAGGCACAUGAGGAUCACCCAUGUUUCUC [Long static hairpin v14] (Eterna round: R97, puzzle: Exclusion 4) | 982 | 70.6 | – | – | – | –

Row | Sequence | apparent KD of MS2 coat protein (input ligand: FMN 200 uM) [nM] | apparent KD of MS2 coat protein (input ligand: none) [nM] | apparent KD of MS2 coat protein [1] [nM] | apparent KD of MS2 coat protein [2] [nM] | apparent KD of MS2 coat protein [3] [nM] | apparent KD of MS2 coat protein [4] [nM]
18 | AUCAAGGGAGGAUAUACAGUGAACAGUACUAGUCAGGCGGCACAUGAGGAUCACCCAUGUAGAAGGCCCAUGAU [Eternabot (L1) Solution 70] (Eterna round: R97, puzzle: Exclusion 2) | 80 | 24.8 | – | – | – | –
19 | AUCAGCUCGUCAGGAUAUACAUGCGUGCUUCGGCACGAAUUUAAGAUCACAUGAGGAUCACCCAUGUAGAAGGGACGAGCUGAU [ENG2/3-B3] (Eterna round: R96, puzzle: Exclusion NG 2) | 1270 | 526 | 498 | – | – | –
20 | AUCAGCUCGUGAGGAUAUACAUGAGGAUCACCCAUGUGAUCAAUAGCAGCUUCGGCUGCAUUAAUGUAGAAGGCACGAGCUGAU [ENG2/5-A3] (Eterna round: R96, puzzle: Exclusion NG 2) | 77.9 | 214 | 22.2 | – | – | –
21 | AUCAUGUAAGGAUAUCUUACAUGUGACGAAAGUCACAGUUAAGAGAAGGUACAUGAGGAUCACCCAUGUAUAAC [Ex4-3: 36] (puzzle: Exclusion 4) | – | – | – | 26.6 | – | –
22 | AUCCAGGCAGGAUAUUGCCGGUUGCACAUGAGGAUCACCCAUGUACUCCUAGGUCGAUGGCAAGAAGGGCUAUCCA [Eternabot (Original) Solution 24] (Eterna round: R97, puzzle: Exclusion 5) | 26.6 | 36 | – | – | – | –
23 | AUCGUGCAGCAAAGCUGUACGAGUACAUGAGGAUCACCCAUGUAGGAUAUGGUACGCAAAGCGUGCUAGAAGGAUAUGAGAUUU [Mat - Exclusion NG 3 - Mod of JL - D100] (Eterna round: R96, puzzle: Exclusion NG 3) | 55.4 | 45.2 | 27.8 | – | – | –
24 | AUCGUGCAGCUUUGCUGUACGAGUACAUGAGGAUCACCCAUGUAGGAUAUGGUACGCUUUGCGUGCUAGAAGGAUAUGAGAUGU [JL ENG3 1.49] (Eterna round: R96, puzzle: Exclusion NG 3) | 37.6 | 33 | 32 | – | – | –
25 | AUCGUGUGAGGAUAUCGAUCAUGGAGGUCUAGGUCUAUGCGCGAGAAGGCACAUGAGGAUCACCCAUGUAAUGG [jl-ex4-4.29 ViennaUCT mod] (Eterna round: R97, puzzle: Exclusion 4) | 59.9 | 636 | – | – | – | –
26 | AUGAGACAUGAGGAUCACCCAUGUGAGGAUAUGUAUGGAUGAAGGAAAGAAUGAGAGAACAGAAGGCACGAAGA [JR_Exclu1_Sub064] (puzzle: Exclusion 1) | – | – | – | 98.9 | 109 | 138
27 | AUGAGGUUAGGAUAUACAUGAGGAUCACCCAUGUUGAAAGGUUAGGUAGGCGGAGCUGGUAGAAGGAACGGAGC [JR_Exclu3_Sub056] (puzzle: Exclusion 3) | – | – | – | 27.8 | – | –
28 | AUGCUCAUAGGAUAUAGAUUGAUUCACAUGAGGAUCACCCAUGUAAACUCUACUUUUUAACUAGAAGGAUGUUUUU [JR_E5_Sub018] (puzzle: Exclusion 5) | – | – | – | 25.3 | – | –
29 | AUGGAGGCAGGAUAUGAGCGUACGAACAUGAGGAUCACCCAUGUGAGAUCUCCUGGUAGCUCAGAAGGGCUAUCUC [Eternabot (Original) Solution 5] (Eterna round: R97, puzzle: Exclusion 5) | 253 | 67.4 | – | – | – | –
30 | AUGGGUCCUCACGGAGCUACAUGAGGAUCACCCAUGUGGAUUGAGGAUAUCGACUGCCGACGGCUCGAGAAGGCAGUUUACUGU [Ex NG3 #95] (Eterna round: R96, puzzle: Exclusion NG 3) | 18.6 | 20.2 | 14.3 | – | – | –
31 | AUGGUUAGGUCAGGAUAUCGUUGAUUGAAUAGUAUGAUUUACAUGAGGAUCACCCAUGUUAUAUACGAGAAGGGACUUUAUCAU [JR_ExcNG2_Sub023] (Eterna round: R96, puzzle: Exclusion NG 2) | 9.77 | 18.6 | 8.77 | – | – | –
32 | AUGUUACAUGAGGAUCACCCAUGUGAGGAUAUGAGUCAGUCACGGUGACGUGGCUGACUCAGAAGGCACUAUGG [JL-ex1-4.39 salish99 mod] (Eterna round: R97, puzzle: Exclusion 1) | 146 | 279 | – | – | – | –
33 | AUUAAGUGAGGAUAUACAAGAUCGCUUACCGCCAAAGGCGGACAUGAGGAUCACCCAUGUAGAAGGCACAAAUU [Vesoanor] (puzzle: Exclusion 2) | – | – | – | 40.9 | – | –
34 | AUUAUAAAGGCAGGAUAUACAUGAGGAUCACCCAUGUAUAUCCGAUAAUAAUAUAAGUGCCUCAUGUAGAAGGGCCAUUAUAUA [Same State Mistake] (Eterna round: R96, puzzle: Exclusion NG 2) | 11.1 | 12.4 | 8.76 | – | – | –
